Test results published in US20220031841A1 (ABSCI, published 2022).

Columns and labels:
Test in all cases: HuProt protein array, F635 z-score
[1] = biological target: T1, Src homology 2 (SH2) domain containing inositol polyphosphate 5-phosphatase 1 (SHIP1) (human, UniProt Q92835 1-1189)
T1 construct: The array carries full-length recombinant human proteins expressed in S. cerevisiae, purified and printed on glass slides; also called INPP5D; INPP5D/SHIP1
T1 sequence: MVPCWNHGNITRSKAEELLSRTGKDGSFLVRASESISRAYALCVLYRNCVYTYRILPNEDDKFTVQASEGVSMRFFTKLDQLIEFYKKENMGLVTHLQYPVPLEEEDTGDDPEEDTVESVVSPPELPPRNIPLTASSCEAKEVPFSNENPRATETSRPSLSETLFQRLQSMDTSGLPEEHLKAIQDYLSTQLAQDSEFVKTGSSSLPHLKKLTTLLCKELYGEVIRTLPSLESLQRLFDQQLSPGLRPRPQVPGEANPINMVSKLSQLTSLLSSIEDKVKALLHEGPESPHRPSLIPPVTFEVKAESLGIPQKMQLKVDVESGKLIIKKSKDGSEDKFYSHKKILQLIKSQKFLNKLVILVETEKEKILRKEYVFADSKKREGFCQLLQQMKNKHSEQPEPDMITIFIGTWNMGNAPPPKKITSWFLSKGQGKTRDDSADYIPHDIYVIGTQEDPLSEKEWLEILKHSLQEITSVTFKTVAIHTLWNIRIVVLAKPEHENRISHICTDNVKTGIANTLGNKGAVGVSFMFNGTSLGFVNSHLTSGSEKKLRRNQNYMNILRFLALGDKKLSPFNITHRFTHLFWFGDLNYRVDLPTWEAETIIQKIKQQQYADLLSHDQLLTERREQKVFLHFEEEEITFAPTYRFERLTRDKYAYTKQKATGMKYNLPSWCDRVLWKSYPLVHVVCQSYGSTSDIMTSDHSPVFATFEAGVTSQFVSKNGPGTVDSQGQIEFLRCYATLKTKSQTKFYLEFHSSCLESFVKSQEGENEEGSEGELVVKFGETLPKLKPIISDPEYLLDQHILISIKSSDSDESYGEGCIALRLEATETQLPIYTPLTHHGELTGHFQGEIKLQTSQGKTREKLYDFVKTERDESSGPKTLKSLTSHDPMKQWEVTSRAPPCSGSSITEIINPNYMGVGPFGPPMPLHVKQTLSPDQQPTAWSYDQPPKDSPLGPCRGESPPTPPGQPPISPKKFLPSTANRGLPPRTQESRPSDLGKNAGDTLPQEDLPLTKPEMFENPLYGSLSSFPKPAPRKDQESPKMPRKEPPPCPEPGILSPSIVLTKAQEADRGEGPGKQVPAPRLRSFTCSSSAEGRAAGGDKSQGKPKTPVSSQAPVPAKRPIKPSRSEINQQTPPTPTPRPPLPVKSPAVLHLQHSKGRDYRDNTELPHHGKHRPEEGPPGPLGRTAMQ
Description: (§1) Large scale protein arrays are versatile and sensitive platforms for antibody specificity evaluation. They can be used for the evaluation of protein binding or affinity reagents that are widely employed in research and clinical applications. The microarray used in our target identification experiment provides the largest number of unique, full-length, individually purified human proteins on a single microscope slide. This allows thousands of interactions to be profiled in a high-throughput manner. The hill-length recombinant proteins are expressed in the yeast S. cerevisiae, purified, and printed on glass slides in duplicate along with a set of control proteins (GST, BSA, histones, IgG, etc.). Such microarray is not restricted to a particular type of surface coating, although the default is glass coated with ultra-thin nitrocellulose film for the non-covalent, yet irreversible, capture of active proteins to the surface. Fourteen Protein arrays were used for the antibody cross-reactivity assay of the samples. The antibodies were probed at […] on the arrays and incubated at room temperature for 1 hour. After probing, the arrays were washed according to the protocol and probed with Alexa-647-anti-human IgG […] specific secondary antibodies under conditions optimized for signal detection. The antibody-antigen binding score was calculated for each protein represented on the array and expressed as z-scores.
(§2) Antibody samples are probed on native HuProt arrays at 1 μg/ml and incubated at room temperature for 1 hour. After probing, the arrays are washed according to the standard protocols and probed with Alexa-647-anti-human IgG Fc gamma specific secondary antibodies under conditions optimized for signal detection.
(§3) Z score is the average Z score of the duplicate spots of a given protein (each protein is printed in duplicate on a HuProt™ array). The Z score of each spot on a given array is calculated according to the equation: […]

[2] = biological target: T2, Inorganic pyrophosphatase (PPA1) (human, UniProt Q15181 2-289)
T2 construct: The array carries full-length recombinant human proteins expressed in S. cerevisiae; also called Human PPA1
T2 sequence: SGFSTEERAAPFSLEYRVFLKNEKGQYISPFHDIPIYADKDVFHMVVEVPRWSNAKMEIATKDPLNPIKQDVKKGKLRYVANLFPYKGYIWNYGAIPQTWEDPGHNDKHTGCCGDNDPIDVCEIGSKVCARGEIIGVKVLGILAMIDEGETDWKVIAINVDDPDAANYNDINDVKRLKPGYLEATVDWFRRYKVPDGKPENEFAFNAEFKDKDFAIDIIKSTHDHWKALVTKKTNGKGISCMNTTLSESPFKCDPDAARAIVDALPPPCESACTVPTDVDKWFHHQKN
Description: as §1, §2, §3

[3] = biological target: T3, Chromobox protein homolog 5 (CBX5) (human, UniProt P45973 1-191)
T3 construct: The array carries full-length recombinant human proteins expressed in S. cerevisiae; also called Human Chromobox protein homolog 5
T3 sequence (P45973 whole entry): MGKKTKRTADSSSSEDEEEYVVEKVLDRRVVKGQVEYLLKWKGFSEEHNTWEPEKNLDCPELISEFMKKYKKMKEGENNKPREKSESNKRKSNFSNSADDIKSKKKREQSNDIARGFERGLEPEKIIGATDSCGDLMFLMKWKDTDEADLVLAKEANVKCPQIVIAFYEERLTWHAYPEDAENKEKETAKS
Description: as §1, §2, §3

[4] = biological target: T4, Chromobox protein homolog 1 (CBX1) (human, UniProt P83916 1-185)
T4 construct: The array carries full-length recombinant human proteins expressed in S. cerevisiae; also called Human Chromobox protein homolog 1
T4 sequence (P83916 whole entry): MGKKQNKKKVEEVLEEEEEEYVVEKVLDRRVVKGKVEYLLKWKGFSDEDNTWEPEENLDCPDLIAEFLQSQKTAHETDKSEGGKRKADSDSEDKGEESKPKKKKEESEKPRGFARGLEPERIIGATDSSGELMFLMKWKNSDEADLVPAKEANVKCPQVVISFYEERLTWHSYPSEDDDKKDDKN
Description: as §1, §2, §3

[5] = biological target: T5, Melanoma-associated antigen 3 (MAGE-A3) (human, UniProt P43357 1-314)
T5 construct: The array carries full-length recombinant human proteins expressed in S. cerevisiae; also called Human MAGE-A3
T5 sequence (P43357 whole entry): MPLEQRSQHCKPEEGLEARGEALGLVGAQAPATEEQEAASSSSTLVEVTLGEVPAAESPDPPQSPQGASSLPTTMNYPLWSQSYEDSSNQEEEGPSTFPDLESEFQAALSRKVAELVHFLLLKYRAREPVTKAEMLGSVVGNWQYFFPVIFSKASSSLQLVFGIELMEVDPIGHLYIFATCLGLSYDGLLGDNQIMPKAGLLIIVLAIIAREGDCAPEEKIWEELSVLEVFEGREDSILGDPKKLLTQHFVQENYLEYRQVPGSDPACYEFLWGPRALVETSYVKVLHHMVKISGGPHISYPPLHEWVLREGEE
Description: as §1, §2, §3

binding result [1]: no binding (tested: 1 µg/ml)
binding result [2]: no binding (tested: 1 µg/ml)
binding result [3]: no binding (tested: 1 µg/ml)
binding result [4]: no binding (tested: 1 µg/ml)
binding result [5]: no binding (tested: 1 µg/ml)
B1: TMEL1004 (antibody, V domains shown)
VH: QITLKESGPTLVKPTQTLTLTCTFSGFSLNTPGVGVGWIRQPPGKALEWLALIYWDDDKRYRPSLESRLTITKDTSKNHVVLTMTNMDPVDTATYFCAHKNLQYSEWFDPWGQGTLVIVSS
VL: EMVLTQSPATLSLSPGERATLSCRASQSVSRNSLAWYQQRPGQTPRLLIYGASSRATGIPDRFSGSGSGTDFTLIISRLEPEDFAVYFCLQYDESPYTFGQGAKLEIKR
